± gives the standard deviation of the averaged measurements.
System: ATP
Assay: switch fluorescence ratio, 500 uM ATP over buffer (Cy3 cluster intensity, sum of 5 cycles each) (fold (ratio)); higher = stronger signal-on switching upon ATP binding; sequences stand for … in TCGTCGGCAGCGTCAGATGTGTATAAGAGACAGTTTTTTTTTTTTTTTTTTTTTTTTT…TC
Details: aptamer strand: ATP DNA aptamer (quencher-CACCTGGGGGAGTATTGCGGAGGAAGG + anchor), 100 nM annealed; ATP concentration: 500 uM
Summary of the method: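 Values give the fluorescence ratio for each switch-domain sequence, averaged from per-cluster ratios of summed target-cycle to summed buffer-cycle Cy3 intensity. The Cy3-labelled switching-strand clusters sat on a modified Illumina MiSeq flow-cell, were annealed to 100 nM quencher-labelled ATP aptamer, and were imaged in selection buffer, then after 15 min with 500 uM ATP at 22 °C. Five cycles ran with NaOH stripping and re-annealing between them, and clusters outside 100-1000 RFU were excluded.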
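Also: ATP exposure 15 min at 22 °C before imaging.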

| Sequence | switch fluorescence ratio |
| --- | --- |
| GGCAGTGTAC | 1.18 ± 0.12 |
| GGCAGTGTGC | 0.99 ± 0.022 |
| GGCAGTTGCT | 0.9882 ± 0.0056 |
| GGCAGTTTTG | 1.01 ± 0.0062 |
| GGCATAACAC | 1.093 ± 0.0088 |
| GGCATACGTT | 0.994 ± 0.026 |
| GGCATCGTAA | 1.01 ± 0.025 |
| GGCATGTGGT | 1.0254 ± 0.001 |
| GGCATTCGAT | 0.981 ± 0.03 |
| GGCATTTCTA | 1.04 ± 0.018 |
| GGCATTTGGA | 0.98 ± 0.035 |
| GGCCAACCCG | 1.0157 ± 0.00094 |
| GGCCAAGGAA | 0.9812 ± 0.0074 |
| GGCCAAGGGG | 1.04 ± 0.027 |
| GGCCAGTTTG | 0.986 ± 0.018 |
| GGCCCATAGC | 0.986 ± 0.018 |
| GGCCCCGGGT | 1.18 ± 0.057 |
| GGCCCGTTAC | 1.63 ± 0.2 |
| GGCCCTAAGT | 0.976 ± 0.026 |
| GGCCCTTCGG | 0.9987 ± 0.0091 |
| GGCCGACAGC | 1.03 ± 0.032 |
| GGCCGATGCA | 1.02 ± 0.021 |
| GGCCGCGCTG | 1.04 ± 0.016 |
| GGCCGGAATT | 1.17 ± 0.19 |
| GGCCGGACAT | 0.9674 ± 0.0089 |

| Sequence | switch fluorescence ratio |
| --- | --- |
| GGCCGGGGCT | 1.01 ± 0.026 |
| GGCCGGGGTA | 1 ± 0.046 |
| GGCCGGGTTA | 1.01 ± 0.042 |
| GGCCGGTAAA | 1 ± 0.051 |
| GGCCGTGGGC | 1 ± 0.043 |
| GGCCGTTGGG | 0.965 ± 0.016 |
| GGCCTAGGGA | 1.01 ± 0.056 |
| GGCCTCTTTT | 0.966 ± 0.039 |
| GGCCTTTTGA | 0.997 ± 0.015 |
| GGCGAAATGG | 1.06 ± 0.059 |
| GGCGAAGGGT | 0.98 ± 0.012 |
| GGCGAAGTTC | 0.99 ± 0.021 |
| GGCGAGGGGC | 1.01 ± 0.036 |
| GGCGATGCGC | 1.03 ± 0.018 |
| GGCGATGTAT | 0.967 ± 0.0097 |
| GGCGCACGGG | 1.02 ± 0.026 |
| GGCGCATTAT | 1.66 ± 0.061 |
| GGCGGAGTGC | 1.01 ± 0.027 |
| GGCGGATCAG | 0.9827 ± 0.0023 |
| GGCGGATGGA | 1.01 ± 0.037 |
| GGCGGATGGG | 1.02 ± 0.026 |
| GGCGGCAAAA | 1.07 ± 0.042 |
| GGCGGGCATG | 1.021 ± 0.0011 |
| GGCGGGGGAA | 1.01 ± 0.059 |
| GGCGGGGGCG | 1.07 ± 0.024 |

| Sequence | switch fluorescence ratio |
| --- | --- |
| GGCGGGGTGG | 1.09 ± 0.12 |
| GGCGGGGTTG | 0.996 ± 0.019 |
| GGCGGGTAAT | 1.04 ± 0.09 |
| GGCGGGTGCG | 0.984 ± 0.028 |
| GGCGGTAAGA | 1 ± 0.051 |
| GGCGGTATAA | 1.01 ± 0.025 |
| GGCGGTATGG | 1.01 ± 0.026 |
| GGCGGTGGCA | 1.01 ± 0.026 |
| GGCGGTTTGT | 1 ± 0.028 |
| GGCGTAAAGT | 1.02 ± 0.036 |
| GGCGTCGAGG | 0.997 ± 0.018 |
| GGCGTGCCGA | 1.011 ± 0.0053 |
| GGCGTGTCGC | 0.9852 ± 0.0037 |
| GGCGTTGGGG | 1 ± 0.023 |
| GGCGTTTGGG | 0.991 ± 0.033 |
| GGCTAAAACT | 1.01 ± 0.015 |
| GGCTAATTGG | 0.99 ± 0.026 |
| GGCTACCTTG | 1.047 ± 0.0038 |
| GGCTAGGGGG | 1.01 ± 0.022 |
| GGCTATATTT | 0.991 ± 0.017 |
| GGCTATTAAA | 1.01 ± 0.011 |
| GGCTCAGGGG | 1.16 ± 0.035 |
| GGCTCATAGT | 0.996 ± 0.017 |
| GGCTCCAGCT | 0.978 ± 0.028 |
| GGCTCCGGGG | 1.03 ± 0.024 |

| Sequence | switch fluorescence ratio |
| --- | --- |
| GGCTCTAGGG | 0.9921 ± 0.0036 |
| GGCTCTTATT | 1.009 ± 0.0057 |
| GGCTGAATGG | 0.988 ± 0.033 |
| GGCTGATACG | 1.04 ± 0.059 |
| GGCTGGGAGG | 0.99 ± 0.014 |
| GGCTGGGATG | 1.02 ± 0.095 |
| GGCTGGGGCT | 0.973 ± 0.026 |
| GGCTGGGTAC | 1.12 ± 0.24 |
| GGCTGGTAGA | 1 ± 0.02 |
| GGCTGGTTTC | 0.9969 ± 0.0089 |
| GGCTGTCGGA | 0.997 ± 0.0034 |
| GGCTGTGGGT | 0.987 ± 0.052 |
| GGCTGTTAAG | 0.983 ± 0.0028 |
| GGCTGTTCGG | 0.988 ± 0.036 |
| GGCTGTTGGT | 0.9655 ± 0.0072 |
| GGCTTAGGCA | 1.01 ± 0.04 |
| GGCTTCGGGG | 0.98028 ± 0.00081 |
| GGCTTGGAGC | 0.996 ± 0.025 |
| GGCTTGGGAG | 0.982 ± 0.019 |
| GGCTTGGGCG | 0.983 ± 0.061 |
| GGCTTTACTA | 1 ± 0.012 |
| GGCTTTGAAG | 0.9951 ± 0.0023 |
| GGCTTTGGGT | 0.991 ± 0.014 |
| GGCTTTGGTC | 1.018 ± 0.0099 |
| GGCTTTGTGG | 0.992 ± 0.02 |
